Laboratory results published in paper PMC8015430 (Immunity, 2021).

B1: COVA1-16 (antibody, V domains shown)
VH: QVQLVQSGAEVKKPGASVKVSCKASGYTFTSYYMHWVRQAPGQGLEWMGIINSSGGSTSYAQKFQGRVTMTRDTSTSTVYMELSSLRSEDTAVYYCARPPRNYYDRSGYYQRAEYFQHWGQGTLVTVSS
VL: DIQLTQSPSSLSASVGDRVTITCQASQDISNYLNWYQQRPGKAPKLLIYDASNLETGVPSRFSGSGSGTDFTFTISSLQPEDIATYYCQQYDNPPLTFGGGTKLEIK
notes: IgG; RBD Class 4
B2: COVA2-39 (antibody, V domains shown)
VH: QVQLVETGGGLIQPGGSLRLSCAASGFTVSSNYMSWVRQAPGKGLEWVSVIYTGGTTYYADSVKGRFTISRDNSKNTLYLQMNSLRAEDTAVYYCARAHVDTAMVESGAFDIWGQGTRVTVSS
VL: QSALTQPASVSGSPGQSITISCTGTSSDVGSYNLVSWYQQHPGKAPKLMIYEVTKRPSGVSNRFSGSKSGNTASLTISGLQAEDEADYYCCSYAGSSTWVFGGGTKLTVL
notes: IgG; RBD Class 2

Target: T1, Recombinant Stabilized SARS-CoV-2 Spike (SARS-CoV-2, Wuhan-Hu-1 reference (wave …, UniProt P0DTC2, stabilised))
T1 construct: also called Pre-fusion, stabilized and uncleaved SARS-CoV-2 Spike (pcDNA3.1+)
Assay: ELISA
Settings: both partners purified

Row | Binder | binding result
1 | B1 | binds
2 | B2 | binds
